The values that follow are results of earlier work, collected in paper PMC12112028.

One may read the Ki as a measure of affinity in units of concentration, obtained from inhibition or displacement. A word on the Kd: it is the constant that tells how readily two partners part at equilibrium.

The target of data set [1] is KISS1R (Homo sapiens) (UniProt Q969F8).
The target in data set [2] is KISS1R (Rattus norvegicus) (UniProt Q924U1). The data set can be described thus: competitive binding assay.
The target is the same in data set [3].
Data set [4] shares this target. This is another data set of the same source.
Data set [5] deals with KISS1R (Homo sapiens) (UniProt Q969F8). This is another data set of the same source.
For data set [6] the target is unchanged. The source holds these as a separate data set.
Data set [7] shares this target. Kind of data set: competitive binding assay.

Where two headings read alike, the source gives them in different places.

UniProt Q924U1, sequence (Q924U1 whole entry): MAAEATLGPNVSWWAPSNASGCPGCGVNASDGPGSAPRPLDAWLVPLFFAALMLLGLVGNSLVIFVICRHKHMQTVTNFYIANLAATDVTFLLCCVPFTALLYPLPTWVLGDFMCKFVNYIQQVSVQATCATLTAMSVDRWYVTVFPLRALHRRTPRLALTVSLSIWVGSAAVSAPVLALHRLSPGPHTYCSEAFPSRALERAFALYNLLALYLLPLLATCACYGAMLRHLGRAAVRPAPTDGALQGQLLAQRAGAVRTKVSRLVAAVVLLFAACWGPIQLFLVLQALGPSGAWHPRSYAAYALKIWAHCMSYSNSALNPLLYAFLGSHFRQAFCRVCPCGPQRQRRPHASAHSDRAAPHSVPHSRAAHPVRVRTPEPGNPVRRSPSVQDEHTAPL
UniProt Q969F8, sequence (Q969F8 whole entry): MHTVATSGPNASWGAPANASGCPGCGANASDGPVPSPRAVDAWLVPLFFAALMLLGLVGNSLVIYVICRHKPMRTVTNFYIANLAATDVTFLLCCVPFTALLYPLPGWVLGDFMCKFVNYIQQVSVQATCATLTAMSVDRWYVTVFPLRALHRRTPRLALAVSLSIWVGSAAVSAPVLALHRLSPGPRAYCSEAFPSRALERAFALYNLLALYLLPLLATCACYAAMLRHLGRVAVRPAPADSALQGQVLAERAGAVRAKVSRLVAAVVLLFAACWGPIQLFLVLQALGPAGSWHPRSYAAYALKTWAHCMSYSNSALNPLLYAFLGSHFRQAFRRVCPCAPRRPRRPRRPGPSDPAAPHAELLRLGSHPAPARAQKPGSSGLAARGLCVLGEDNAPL

KP-13 (from UniProt Q15726): the values for the Ki (in the data set with KISS1R (Homo sapiens) [1]; in data set [2]) were 4.23 nM and 2.08 nM, respectively.
Turning to KP-10 (from UniProt Q15726), the values for the Ki (in data set [3]; in the data set with KISS1R (Homo sapiens) [5]) were 1.59 nM and 2.33 nM, respectively. The Kd is 1 nM in data set [4] and 1.9 nM in the data set with KISS1R (Homo sapiens) [6].
KP-14 (from UniProt Q15726): the inhibition constant Ki with KISS1R (Homo sapiens) [7] is 1.65 nM; in data set [2], 2.04 nM.
In the case of KP-54 (from UniProt Q15726), the values for the Ki (in the data set with KISS1R (Homo sapiens) [7]; in data set [2]) were 1.45 nM and 1.81 nM, respectively.
